Several values for one entry are separate records, joined by “and”; a condition that tells them apart may be missing. Identical values can stand only once. Like-named read-outs stand apart in the source and are kept apart here.
Key:
[1] = target: amyloid β peptide (Aβ) of the TBS-soluble fraction of human Alzheimer's disease brain (human (endogenous in brain)); test: SDS-PAGE and immunoblot
[2] = SEC
[3] = target: amyloid β peptide (Aβ) of the TBS-soluble fraction of human Alzheimer's disease brain (human (endogenous in brain)); test: SEC
[4] = split reporter; conditions: split reporter (BiFC, NanoBiT)
[5] = target: split-luciferase tagged Aβ; test: split reporter
[6] = target: split-luciferase tagged Aβ; test: SEC + split reporter
[7] = target: split-luciferase tagged Aβ; test: split reporter; remark: listed apart in the source
[8] = target: split-luciferase tagged Aβ; test: split reporter; remark: listed apart in the source

Substance: amyloid β peptide (Aβ) of the TBS-soluble fraction of human Alzheimer's disease brain
- stoichiometry N [1]: 2
- percent of LMW Aβ eluting in the HMW Aβ fraction after incubation without apoE [2]: 0.5 ± 0.7 without apoE
- stoichiometry N [3]: 2 and 3

Substance: split-luciferase tagged Aβ
- luminescence (%) after incubation with SEC fraction 6 of AD brain [4]: 141.8% in AD fraction 6
- luminescence (%) after incubation with SEC fraction 6 of control brain [4]: 99.8% in control fraction 6
- luminescence (%) after incubation with SEC fraction 7 of AD brain [4]: 198.4% in AD fraction 7
- luminescence (%) after incubation with SEC fraction 7 of control brain [4]: 163.2% in control fraction 7
- luminescence (%) after incubation with SEC fraction 8 of AD brain [4]: 256.4% in AD fraction 8
- luminescence (%) after incubation with SEC fraction 8 of control brain [4]: 230.8% in control fraction 8
- luminescence (%) after incubation with SEC fraction 9 of AD brain [4]: 207.6% in AD fraction 9
- luminescence (%) after incubation with SEC fraction 9 of control brain [4]: 202.6% in control fraction 9

Substance: split-luciferase tagged Aβ (peptide)
- luminescence (%) after incubation with fraction 8 of APOEε3/ε3 AD brains [5]: 168%
- luminescence (%) after incubation with fraction 8 of APOEε4/ε4 AD brains [5]: 193%
- luminescence of cell lysate (%) with apoA-II co-expressed [5]: 100%
- luminescence of cell lysate (%) with apoE2 co-expressed [5]: 89.9%
- luminescence of cell lysate (%) with apoE3 co-expressed [5]: 96.4%
- luminescence of cell lysate (%) with apoE4 co-expressed [5]: 92.5%
- luminescence of conditioned medium (% of control) with apoA-I co-expressed [5]: 132%
- luminescence of conditioned medium (% of control) with apoA-II co-expressed [5]: 89.3%
- luminescence of conditioned medium (% of control) with apoE3 co-expressed [5]: 279%
- luminescence of conditioned medium (%) with apoA-II co-expressed [5]: 101%
- luminescence of conditioned medium (%) with apoE3 co-expressed [5]: 229%
- luminescence of conditioned medium (%) with apoE4 R61T co-expressed [5]: 228%
- luminescence of conditioned medium (%) with apoE4 co-expressed [5]: 261%
- stoichiometry N [6]: 2
- luminescence of conditioned medium (% of control) with apoA-II co-expressed [7]: 91.7%
- luminescence of conditioned medium (% of control) with apoE3 NTF co-expressed [7]: 113%
- luminescence of conditioned medium (% of control) with apoE3 co-expressed [7]: 274%
- luminescence of conditioned medium (% of control) with apoE 192-242 co-expressed [7]: 142%
- luminescence of conditioned medium (% of control) with apoE 192-272 co-expressed [7]: 185%
- luminescence of conditioned medium (% of control) with apoE 231-299 co-expressed [7]: 223%
- luminescence of conditioned medium (% of control) with apoE 243-299 co-expressed [7]: 235%
- luminescence of conditioned medium (% of control) with apoE CTF co-expressed [7]: 239%
- luminescence of conditioned medium (% of control) with apoE3 NTF co-expressed [8]: 114%
- luminescence of conditioned medium (% of control) with apoE3 co-expressed [8]: 218%
- luminescence of conditioned medium (% of control) with apoE CTF co-expressed [8]: 206%

— article PMC3493562
